39 variants from the RNAGym collection of RNA variant scans (doi:10.7554/elife.90254) can be followed below.

The labels stand for the following.
B1: LINE1-full (parent)
chain: UACGUAGGUGGUUUUCCCCUGAUAGUGCUAAGGGGGCCUGGAAGUUUGGACUGGGCAGAGCUCAACACAGCGUGGCAAAGUGGCUGUGGCUAGACUGCCUCUCUGGAUUCCUCGUCACUCAGCAGGGCAUCUCUGAGAGAAAUGCC

Variants of B1 are the subject of the data set. The data set is described as follows: self-cleavage, relative activity (ratio to wild type); higher = more cleavage; in vitro, sequencing; the parent is a self-cleaving ribozyme.
Consider UACGUAGGUGGUUUUCCUCUGAUAGUGCUAAGGGGGCCUGGAAGUUUGGACUGGGCAGAGCUCAACACAGCGUGGCAAAGUGGCUGUGGCUAGACUGCCUCUCUGGAUUCCUCGUCACUCAGCAGGGCAUCUCUGAGAGAAAUACC, for which the self-cleavage is 0.75.
UACGUAGGUGGUUUUCCGCUGAUAGUGCUAAGGGGGCCUGGAAGUUUGGACUGGGCAGAGCUCAACACAGCGUGGCAAAGUGGCUGUGGCUAGACUGCCUCUCUGGAUUCCUCGCCACUCAGCAGGGCAUCUCUGAGAGAAAUGCC: the self-cleavage came to 1.67.
UACGUAGGUGGUUUUCCCAUGAUAGUGCUAAGGGGGCCUGGAAGUUUGGACUGGGCAGAGCUCAACACAGCGUGGCAAAGUGGCUGUGGCUAGACUGCCUCUCUGGAUUCCUCGUCACUCAGCAGGGCAUCUCUGAGAGAAAUGCC: the self-cleavage was determined as 0.97.
Next, UACGUAGGUGGUUUUCCUCUGAUAGUGCUAAGGGGGCCUGGAAGUUUGGACUGGGCAGAGCUCAACACAGCGUGGCAAAGUGGCUGUGGCUAGACAGCCUCUCUGGAUUCCUCGUCACUCAGCAGGGCAUCUCUGAGAGAAAUGCC: 0.08.
For UACGUAGGUGGUUUUCCUCUGAUAGUGCUAAGGGGGCCUGGAAGUUUGGACUGGGCAGAGCUCAACACAGCGUGGCAAAGUGGCUGUGGCUAGGCUGCCUCUCUGGAUUCCUCGUCACUCAGCAGGGCAUCUCUGAGAGAAAUGCC, the self-cleavage was found to be 0.32.
For UACGUAGGUGGUUUUCCUCUGAUAGUGCUAAGGGGGCCUGGAAGUUUGGACUGGGUAGAGCUCAACACAGCGUGGCAAAGUGGCUGUGGCUAGACUGCCUCUCUGGAUUCCUCGUCACUCAGCAGGGCAUCUCUGAGAGAAAUGCC, the self-cleavage stood at 0.24.
The value for UACGUAGGUGGUUUUCCUCUGAUAGUGCUAAGGGGGCCUGGAAGUUUGGACUGGGCAGAGCUCAACACAGCGUGGCAAGGUGGCUGUGGCUAGACUGCCUCUCUGGAUUCCUCGUCACUCAGCAGGGCAUCUCUGAGAGAAAUGCC was 1; that for UACGUAGGUGGUUUUCCUCUGAUAGUGCUAAGGGGGCCUGGAAGUUUGGACUGGGCAGAGCUCAACACAGCGUGGCAAAGUGGCUGUGGCUAGACUGCCCCUCUGGAUUCCUCGUCACUCAGCAGGGCAUCUCUGAGAGAAAUGCC was 1.53; that for UACGUAGGUGGUUUUCCUCUGAUAGUGCUAAGGGGGCCUGGAAGUUUGGACUGGGCAGAGCUCAACACAGCGUGGCAAAGUGGCUGUGGCUAGACUGCCUCUCUGGACUCCUCGUCACUCAGCAGGGCAUCUCUGAGAGAAAUGCC was 0.
With UACGUAGGUGGUUUUCCUCUGAUAGUGCUAAGGGGGCCUGGAAGUUUGGACUGGGCAGAGCUCAACACAGCGUGGCAAAGUGGCUGUGGCUAGACUGCCUCUCUGGAUUCCUCGUCACUCAGCAGGGCAUCUCGGAGAGAAAUGCC, the self-cleavage was found to be 1.95.
The value for UACGUAGGUGGUUUUCCUCUGAUAGUGCUAAGGGGGCCUGGAAGUUUGGACUGGGCAGAGCUCAACACAGAGUGGCAAAGUGGCUGUGGCUAGACUGCCUCUCUGGAUUCCUCGUCACUCAGCAGGGCAUCUCUGAGAGAAAUGCC was 0.09.
As for UACGUAGGUGGUUUUCCUCUGAUAGUGCUAAGGGGGCCUGGAAGUUUGGACUGGGCAGAGCUCAACACAGCGUGGCAGAGUGGCUGUGGCUAGACUGCCUCUCUGGAUUCCUCGUCACUCAGCAGGGCAUCUCUGAGAGAAAUGCC, the self-cleavage is 0.88.
Take UACGUAGGUGGUUUUCCUCUGAUAGUGCUAAGGGGGCCUGGAAGUUUGGACUGGGCAGAGCUCAACACAGCGUGGCAUAGUGGCUGUGGCUAGACUGCCUCUCUGGAUUCCUCGUCACUCAGCAGGGCAUCUCUGAGAGAAAUGCC: the self-cleavage amounted to 0.9.
The value for UACGUAGGUGGUUUUCCACUGAUAGUGCUAAGGGGGCCUGGAAGUUUGGACUGGGCAGAGCUCAACACAGCGUGGCAAAGUGGCUGUGGCUAGACUGCCUCUCUGGAUUCCUCGUCACUCAGCAGGGCAUCUCUGAGAGAAACGCC was 0.56; that for UACGUAGGUGGUUUUCCGCUGAUAGUGCUAAGGGGGCCUGGAAGUUUGGACUGGGCAGAGCUCAUCACAGCGUGGCAAAGUGGCUGUGGCUAGACUGCCUCUCUGGAUUCCUCGUCACUCAGCAGGGCAUCUCUGAGAGAAAUGCC was 0.28.
Take UACGUAGGUGGUUUUCCGCUGAUAGUGCUAAGGGGGCCUGGAAGUUUGGACUGGGCAGAGCUCAACACAGCGUGGCAAAGUGGCUGUGGCUAGACUGCCUCUCUGGAUUCCUCGUCACUCAGCGGGGCAUCUCUGAGAGAAAUGCC: the self-cleavage was 1.02.
The value for UACGUAGGUGGUUUUCCUCUGAUAGUGCUAAGGGGGCCUGGAAGUUUGGACUGGGCAGAGCUCAACACAGCGUGGCAAAGUGGCUGUGGCUAGACUGCCUCUCUGGAUUCCUCGUCACUCAGCAGGGCAUCUCUGAGAGAAAUGCC was 1.17; that for UACGUAGGUGGUUUUCCGCUGAUAGUGCUAAGGGGGCCUGGAAGUUUGGACUGGGCAGAGCUCAACACAGCGUGGCAAAGUGGCUGUGGCUAGACUGCCUCUCUGGAUUCCUCGUCACUCAGCAGGGCAUCUCUGAGAGAAAUGCC was 1.36.
The value for UACGUAGGUGGUUUUCCUCUGAUAGUGCUUAGGGGGCCUGGAAGUUUGGACUGGGCAGAGCUCAACACAGCGUGGCAAAGUGGCUGUGGCUAGACUGCCUCUCUGGAUUCCUCGUCACUCAGCAGGGCAUCUCUGAGAGAAAUGCC was 0.14; that for UACGUAGGUGGUUUUCCUCUGAUAGUGCUAAGGGGGCCUGGAAGCUUGGACUGGGCAGAGCUCAACACAGCGUGGCAAAGUGGCUGUGGCUAGACUGCCUCUCUGGAUUCCUCGUCACUCAGCAGGGCAUCUCUGAGAGAAAUGCC was 0.57.
In the case of UACGUAGGUGGUUUUCCUCUGAUAGUGCUAAGGGGGCCUGGAAGUUUGGACUGGGCAGAGCUCAACACCGCGUGGCAAAGUGGCUGUGGCUAGACUGCCUCUCUGGAUUCCUCGUCACUCAGCAGGGCAUCUCUGAGAGAAAUGCC, the self-cleavage came to 0.07.
In the case of UACGUAGGUGGUUUUCCUCUGAUAGUGCUAAGGGGGCCUGGAAGUUUGGACUGGGCAGAGCUCAACACAGCGUGGCAAAGUGGCUGUGGCUAGACUGCCUCUCUGGAUUCCUCGUCACUCAGCAGGGCGUCUCUGAGAGAAAUGCC, the self-cleavage stood at 0.81.
On to UACGUAGGUGGUUUUCCUCUGAUAGUGCUAAGGGGGCCUGGAGGUUUGGACUGGGCAGAGCUCAACACAGCGUGGCAAAGUGGCUGUGGCUAGACUGCCUCUCUGGAUUCCUCGUCACUCAGCAGGGCAUCUCUGAGAGAAAUGCC, for which the self-cleavage stood at 2.02.
The value for UACGUAGGUGGUUUUCCUCUGAUAGUGCUAAGGGGGCCUGGAAGUUUGGACUGGGCAGAGCUCAACACAGCGUGGCAAAGUGGCUGUGGCUAGACUGCCUCUCUGGAUUCCUCGUCACUCAGCAGUGCAUCUCUGAGAGAAAUGCC was 1.62; that for UACGUAGGUGGUUUUCCUCUGAUAGUGCUAAGGGGGCCUGGAAGUUUGGACUGGGCAGAGCUCAACACAGCGUGGCUAAGUGGCUGUGGCUAGACUGCCUCUCUGGAUUCCUCGUCACUCAGCAGGGCAUCUCUGAGAGAAAUGCC was 1.11; that for UACGUAGGUGGUUUUCCUCUGAUAGUGCUAAGGGGGCCUGGAAGUUUGGACUGGGCAGAGCUCAACACAGCGUGGCGAAGUGGCUGUGGCUAGACUGCCUCUCUGGAUUCCUCGUCACUCAGCAGGGCAUCUCUGAGAGAAAUGCC was 1.91.
For the variant UACGUAGGUGGUUUUCCUCUGAUAGUGCUAAGGGGGCCUGGAAGUUUGGACUGGGCAGAGCUCAGCACAGCGUGGCAAAGUGGCUGUGGCUAGACUGCCUCUCUGGAUUCCUCGUCACUCAGCAGGGCAUCUCUGAGAGAAAUGCC, the self-cleavage came to 0.07.
In the case of UACGUAGGUGGUUUUCCUCUGAUAGUGCUAAGGGGGCCUGGAAGUUUGGACUGGGCAGAGCUCUACACAGCGUGGCAAAGUGGCUGUGGCUAGACUGCCUCUCUGGAUUCCUCGUCACUCAGCAGGGCAUCUCUGAGAGAAAUGCC, the self-cleavage was found to be 0.19.
For UACGUAGGUGGUUUUCCCAUGAUAGUGCUAAGGGGGCCUGGGAGUUUGGACUGGGCAGAGCUCAACACAGCGUGGCAAAGUGGCUGUGGCUAGACUGCCUCUCUGGAUUCCUCGUCACUCAGCAGGGCAUCUCUGAGAGAAAUGCC, the self-cleavage stood at 0.33.
As to UACGUAGGUGGUUUUCCUCUGAUAGUGCUAAGGGGGCCUGGCAGUUUGGACUGGGCAGAGCUCAACACAGCGUGGCAAAGUGGCUGUGGCUAGACUGCCUCUCUGGAUUCCUCGUCACUCAGCAGGGCAUCUCUGAGAGAAAUGCC, the self-cleavage came to 0.74.
The value for UACGUAGGUGGUUUUCCACUGAUAGUGCUAAGGGGGCCUGGAAGUUUGGACUGGGCAGAGCUCAACACAGCGUGGCAAAGUGGCUGUGGCUAGACUGCCUCUCUGGAUUCCUCGUCACUCAGCAGGGCAUCACUGAGAGAAAUGCC was 1.38; that for UACGUAGGUGGUUUUCCUCUGAUAGCGCUAAGGGGGCCUGGAAGUUUGGACUGGGCAGAGCUCAACACAGCGUGGCAAAGUGGCUGUGGCUAGACUGCCUCUCUGGAUUCCUCGUCACUCAGCAGGGCAUCUCUGAGAGAAAUGCC was 2.16.
The value for UACGUAGGUGGUUUUCCUCUGAUAGUGCUAAGGGGGCCUGGAAGUUUGGACUGGGCAGAGCUCAACACAGCGUGGCAAAGUGGCUGUGGCUAGACUGCCUCUCUGGAUUCCUCGUCACUCAGCAGGGCAUCUCUGGGAGAAAUGCC was 1.33; that for UACGUAGGUGGUUUUCCUCUGAUAGUGCUAAGGGGGCCUGGAAGUUUGGACUGGGCAGAACUCAACACAGCGUGGCAAAGUGGCUGUGGCUAGACUGCCUCUCUGGAUUCCUCGUCACUCAGCAGGGCAUCUCUGAGAGAAAUGCC was 0.01; that for UACGUAGGUGGUUUUCCUCUGAUAGUGCUAAGGGGGCCUGGAAGUUUGGACUGGGCAGAGCUCAACACAGCGUGGCAAAGUGGCGGUGGCUAGACUGCCUCUCUGGAUUCCUCGUCACUCAGCAGGGCAUCUCUGAGAGAAAUGCC was 0.23.
Turning to UACGUAGGUGGUUUUCCUCUGAUAGUGCUAAGGGGGCCUGGAAGUUUGGACUGGGCAGAGCUCAACACAGCGUGGCAAAGUGGCAGUGGCUAGACUGCCUCUCUGGAUUCCUCGUCACUCAGCAGGGCAUCUCUGAGAGAAAUGCC, the self-cleavage is 0.13.
Take UACGUAGGUGGUUUUCCUCUGAUAGUGCUAAGGGGGCCUGGAAGUUUGGACUGGGCAGAGCUCAACACAGCGUGGCAAAGUGGCUGUGGCUAGACUGCCUCGCUGGAUUCCUCGUCACUCAGCAGGGCAUCUCUGAGAGAAAUGCC: the self-cleavage worked out at 0.62.
For the variant UACGUAGGUGGUUUUCCUCUGAUAGUGCUAAGGGGGCCUGGAAGUUUGGACUGGGCAGAGCUCAACACAGCGUGGCAAAGUGGCUGUGGCUAGACUGCCUCCCUGGAUUCCUCGUCACUCAGCAGGGCAUCUCUGAGAGAAAUGCC, the self-cleavage worked out at 1.61.
The value for UACGUAGGUGGUUUUCCUCUGAUAAUGCUAAGGGGGCCUGGAAGUUUGGACUGGGCAGAGCUCAACACAGCGUGGCAAAGUGGCUGUGGCUAGACUGCCUCUCUGGAUUCCUCGUCACUCAGCAGGGCAUCUCUGAGAGAAAUGCC was 0.39.
